From PMC10321058 come the findings set out here.

This series addresses SARS-CoV-2 spike RBD protein (SARS-CoV-2, UniProt P0DTC2 319-541). The series is described as follows: electrochemical aptasensor.

B1: thiolated SARS-CoV-2 RBD aptamer (Song et al. 2020) (ssDNA)
DNA: TTTTTCCAGCCACCGACCTTGTGCTTTGGGAGTGCTGGTCCAAGGGCGTTAAGGACA
modifications: 5'-thiol, TCEP reduced, immobilized on SPCE/HA-LSCF
Take B1: the binding result is given as “binds”.
